Data taken from PMC5651433 (Alzheimer's & Dementia : Translational Research & Clinical …, 2017).
Non-standard residues stand in square brackets, D forms with d. No end group written: not given here. pY = N[C@@H](Cc1ccc(OP(=O)(O)O)cc1)C(=O)O; pS = N[C@@H](COP(=O)(O)O)C(=O)O

Biological target: the molecule itself
Assay: reducing SDS-PAGE and Western blotting of SDS-resistant polymers

Molecule	binding result
MSSRRSSSCKYCEQDFRAHTQKNAATPFLAN [Zfra1–31 (zinc finger-like protein that regulates apoptosis, full-length synthetic peptide)]	binds

Biological target: endogenous Aβ (AD hippocampus) (human (endogenous in postmortem hippocampus))
Assay: FRET or BRET

Molecule	FRETc
endogenous Zfra (human hippocampus) (natural protein)	> 45

Biological target: the molecule itself
Assay: nonreducing SDS-PAGE of peptide polymers

Molecule	binding result
RIQNPSLRENDFIEIE [ANKRD40266-281]	binds
DYWAMLAYNRSKLC [WWOX286-299]	binds
D[pY]WAMLAYNRSKLC [pY287-WWOX286-299]	binds
AGLDDTD[pS]EDELPPG [pS14-WWOX7-21]	binds
AGLDDTDSEDELPPG [WWOX7-21]	binds
RIQNP[pS]LRENDFIEIE [pS271-ANKRD40266-281]	binds
DPGPGGQKMSL[pS]VLE [pS35-TPC6A24-38]	binds
